Assay results reported in publication PMC12229497, “The intracellular bacterium Orientia tsutsugamushi uses the autotransporter ScaC to activate BICD adaptors for dynein-based motility” (Nature Communications, 2025).

B6: ScaC passenger domain (residues 33–223), C-terminal TEV-6His (domain or fragment)
chain: VSNMNLDISNMGEAREGLRKDIAEVSKLLCMLEKSTASSKNLTMRLQQSDTRENEQSNHIRLLITEIESINKENDCLRQKNNQLKIKLHQLKVKLEQALARNTDLQQILPKSQAEMDNLRKQNEQLKIQLQQLQVKLQDLMSLQNKCSNLALINSVKLNYIRDIKYIALANIVIVKALASTFTEKLSKSNR
notes: source: SoluBL21 E. coli, purified (Ni-NTA, MonoQ, Superdex 200)

Experiments:
[1] = target: T1, GCN4-RANBP2^min (RANBP2 residues 2148–2240 fused to an N-terminal GCN4 dimerization tag) (human, UniProt P49792 2148-2240); test: pull-down; settings: both partners purified
T1 construct: not shown: GCN4 dimerization tag, N-terminal, kept

[2] = target: T2, RAB6^Q72L (GTP-locked RAB6 mutant) (human, UniProt P20340 1-208, Q72L); test: pull-down; settings: both partners purified
T2 construct: source: SoluBL21 E. coli, purified (Glutathione Sepharose, GST cleaved, Superose 6, with 10 μM GTP); not shown: GST, N-terminal, cleaved

[3] = target: B6; test: SEC; reconstitution: BICD2 and ScaC constructs mixed in a 1:2 molar ratio, 15 min on ice, Superose 6 Increase 3.2/300 in GF150 buffer; fractions on SDS-PAGE; settings: both partners purified
[4] = target: B6; test: pull-down; settings: both partners purified
[5] = target: T3, BICD2, full-length mouse (mouse, UniProt Q921C5 1-820); test: SEC; reconstitution: BICD2 and ScaC constructs mixed in a 1:2 molar ratio, 15 min on ice, Superose 6 Increase 3.2/300 in GF150 buffer; fractions on SDS-PAGE; settings: both partners purified
T3 construct: also called full-length BICD2

[6] = target: the molecule itself; test: SEC-MALS; 1 mg/mL, Superose 6 10/300, GF150 buffer, 0.5 ml/min
[7] = target: T3, BICD2, full-length mouse; test: as above; settings: both partners purified
[8] = target: T4, BICD2-AF488 (BICD2-SNAP labelled with SNAP-Surface Alexa Fluor 488) (mouse, UniProt Q921C5 1-820, Alexa Fluor 488 on the SNAP tag (SNAP-Surface Alexa Fluor 488)); test: single-molecule TIRF dual-colour co-migration on microtubules; settings: both partners purified
T4 construct: also called BICD2-488; not shown: SNAP, C-terminal, kept
T4 sequence (Q921C5 whole entry): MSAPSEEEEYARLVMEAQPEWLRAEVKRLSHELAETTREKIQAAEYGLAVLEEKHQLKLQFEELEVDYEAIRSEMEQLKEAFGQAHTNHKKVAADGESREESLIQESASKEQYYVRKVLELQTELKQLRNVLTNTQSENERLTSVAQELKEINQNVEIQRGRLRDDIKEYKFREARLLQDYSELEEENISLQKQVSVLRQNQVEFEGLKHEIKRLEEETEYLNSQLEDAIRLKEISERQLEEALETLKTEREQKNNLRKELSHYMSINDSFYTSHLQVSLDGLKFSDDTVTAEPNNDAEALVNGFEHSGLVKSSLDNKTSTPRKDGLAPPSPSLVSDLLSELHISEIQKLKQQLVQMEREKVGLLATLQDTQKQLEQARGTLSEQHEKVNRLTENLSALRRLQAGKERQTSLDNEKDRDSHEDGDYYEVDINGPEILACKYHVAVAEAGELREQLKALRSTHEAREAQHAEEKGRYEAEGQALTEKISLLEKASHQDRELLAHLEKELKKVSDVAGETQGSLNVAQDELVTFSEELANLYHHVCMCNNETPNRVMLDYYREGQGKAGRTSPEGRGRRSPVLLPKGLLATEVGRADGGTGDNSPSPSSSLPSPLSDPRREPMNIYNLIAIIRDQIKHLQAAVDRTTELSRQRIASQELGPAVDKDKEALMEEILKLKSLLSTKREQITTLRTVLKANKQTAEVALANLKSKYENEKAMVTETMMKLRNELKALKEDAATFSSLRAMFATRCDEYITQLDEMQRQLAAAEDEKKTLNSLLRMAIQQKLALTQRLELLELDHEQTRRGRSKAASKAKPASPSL

T3 sequence (Q921C5 whole entry): as above
T1 sequence (P49792 2148-2240): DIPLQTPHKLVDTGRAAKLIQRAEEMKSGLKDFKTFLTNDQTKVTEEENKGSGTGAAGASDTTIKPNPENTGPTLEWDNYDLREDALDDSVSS
T2 sequence (P20340 whole entry Q72L): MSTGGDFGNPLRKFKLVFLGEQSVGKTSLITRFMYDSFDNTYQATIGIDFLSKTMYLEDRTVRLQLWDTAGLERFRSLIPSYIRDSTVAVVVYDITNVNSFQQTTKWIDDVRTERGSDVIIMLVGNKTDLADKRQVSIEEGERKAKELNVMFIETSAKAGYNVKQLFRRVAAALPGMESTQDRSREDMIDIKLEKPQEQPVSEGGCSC

B1: Strep-BICD2^711–800 (CC3 domain) (domain or fragment, mouse, UniProt Q921C5 711-800, looked up)
chain: YENEKAMVTETMMKLRNELKALKEDAATFSSLRAMFATRCDEYITQLDEMQRQLAAAEDEKKTLNSLLRMAIQQKLALTQRLELLELDHE
notes: also called CC3 of BICD2; not shown: Strep, N-terminal, kept
binding result [1]: binds | binding result [2]: binds | binding result [3]: binds

B2: Strep-BICD2^711–800 L786A (domain or fragment, mouse, UniProt Q921C5 711-800, looked up)
chain: YENEKAMVTETMMKLRNELKALKEDAATFSSLRAMFATRCDEYITQLDEMQRQLAAAEDEKKTLNSLLRMAIQQKAALTQRLELLELDHE
notes: not shown: Strep, N-terminal, kept
binding result [4]: binds

B3: Strep-BICD2^711–800 L742A/L786A (domain or fragment, mouse, UniProt Q921C5 711-800, looked up)
chain: YENEKAMVTETMMKLRNELKALKEDAATFSSARAMFATRCDEYITQLDEMQRQLAAAEDEKKTLNSLLRMAIQQKAALTQRLELLELDHE
notes: also called double L742A/L786A mutant; not shown: Strep, N-terminal, kept
binding result [4]: binds

B4: Strep-BICD2^711–800 L742A (domain or fragment, mouse, UniProt Q921C5 711-800, looked up)
chain: YENEKAMVTETMMKLRNELKALKEDAATFSSARAMFATRCDEYITQLDEMQRQLAAAEDEKKTLNSLLRMAIQQKLALTQRLELLELDHE
notes: as for B2
binding result [4]: binds

B5: ScaC^50–159 (domain or fragment)
chain: LRKDIAEVSKLLCMLEKSTASSKNLTMRLQQSDTRENEQSNHIRLLITEIESINKENDCLRQKNNQLKIKLHQLKVKLEQALARNTDLQQILPKSQAEMDNLRKQNEQLK
notes: source: SoluBL21 E. coli, purified (StrepTactin, Superdex 200)
binding result [5]: binds

B6
stoichiometry N [6]: 2 | stoichiometry N [7]: 1 ScaC:BICD2 (2:2)

B7: ScaC-AF647 (ScaC-SNAP labelled with SNAP-Surface Alexa Fluor 647) (domain or fragment)
chain: VSNMNLDISNMGEAREGLRKDIAEVSKLLCMLEKSTASSKNLTMRLQQSDTRENEQSNHIRLLITEIESINKENDCLRQKNNQLKIKLHQLKVKLEQALARNTDLQQILPKSQAEMDNLRKQNEQLKIQLQQLQVKLQDLMSLQNKCSNLALINSVKLNYIRDIKYIALANIVIVKALASTFTEKLSKSNR
modifications: Alexa Fluor 647 on the SNAP tag (SNAP-Surface Alexa Fluor 647)
notes: source: SoluBL21 E. coli, purified (Ni-NTA, MonoQ, labelling, Superdex 200)
binding result [8]: binds
